Reference: PMC12680046

Columns and labels:
[1] = molecular target: mCherry-EGFR (L858R/T790M)-HomoFC (UniProt P00533); assay: split reporter
[2] = molecular target: mCherry-BICD2N-EGFR (Ex19Del/T790M/C797S)-HomoFC
[3] = molecular target: mCherry-BICD2N-EGFR (Ex19Del/T790M/C797S)-HomoFC; assay: split reporter

Row | Substance | percent reduction of EGFR oligomerization (HomoFC) [1] [%] | C/N ERK-KTR ratio after EGF stimulation [2] | HomoFC/mCherry ratio (EGF) [3] | fold lower oligomer signal than WT EGFR at the basal level [3] [fold] | fold reduction of the oligomer signal against the nonfused mutant [3] [fold]
1 | YFP–DARPin (E69)–BICD2N (from UniProt Q8TD16 1-594) (designed binder) | 50 | – | – | – | –
2 | mCherry-BICD2N-EGFR (Ex19Del/T790M/C797S)-HomoFC (from UniProt Q8TD16;P00533) (receptor) | – | 0.64 | 0.12 | 3.3 | 18.8
